# B1: Focal adhesion kinase 1 (Homo sapiens), Q05397 (parent)
# chain: MAAAYLDPNLNHTPNSSTKTHLGTGMERSPGAMERVLKVFHYFESNSEPTTWASIIRHGDATDVRGIIQKIVDSHKVKHVACYGFRLSHLRSEEVHWLHVDMGVSSVREKYELAHPPEEWKYELRIRYLPKGFLNQFTEDKPTLNFFYQQVKSDYMLEIADQVDQEIALKLGCLEIRRSYWEMRGNALEKKSNYEVLEKDVGLKRFFPKSLLDSVKAKTLRKLIQQTFRQFANLNREESILKFFEILSPVYRFDKECFKCALGSSWIISVELAIGPEEGISYLTDKGCNPTHLADFTQVQTIQYSNSEDKDRKGMLQLKIAGAPEPLTVTAPSLTIAENMADLIDGYCRLVNGTSQSFIIRPQKEGERALPSIPKLANSEKQGMRTHAVSVSETDDYAEIIDEEDTYTMPSTRDYEIQRERIELGRCIGEGQFGDVHQGIYMSPENPALAVAIKTCKNCTSDSVREKFLQEALTMRQFDHPHIVKLIGVITENPVWIIMELCTLGELRSFLQVRKYSLDLASLILYAYQLSTALAYLESKRFVHRDIAARNVLVSSNDCVKLGDFGLSRYMEDSTYYKASKGKLPIKWMAPESINFRRFTSASDVWMFGVCMWEILMHGVKPFQGVKNNDVIGRIENGERLPMPPNCPPTLYSLMTKCWAYDPSRRPRFTELKAQLSTILEEEKAQQEERMRMESRRQATVSWDSGGSDEAPPKPSRPGYPSPRSSEGFYPSPQHMVQTNHYQVSGYPGSHGITAMAGSIYPGQASLLDQTDSWNHRPQEIAMWQPNVEDSTVLDLRGIGQVLPTHLMEERLIRQQQEMEEDQRWLEKEERFLKPDVRLSRGSIDREDGSLQGPIGNQHIYQPVGKPDPAAPPKKPPRPGAPGHLGSLASLSSPADSYNEGVKLQPQEISPPPTANLDRSNDKVYENVTGLVKAVIEMSSKIQPAPPEEYVPMVKEVGLALRTLLATVDETIPLLPASTHREIEMAQKLLNSDLGELINKMKLAQQYVMTSLQQEYKKQMLTAAHALAVDAKNLLDVIDQARLKMLGQTRPH
# Variants of: B1
# Details: with paxi_human PXN
row,effect of a mutation on the interaction,Variant
1,decreasing interaction,L1035A
2,decreasing interaction,R1042G
3,decreasing interaction,V935A
4,decreasing interaction,V1037D

# Further lines, the variant ahead of its results:
row,Variant,effect of a mutation on the interaction
1,L931R,decreasing interaction
2,L1034S,decreasing interaction
3,D1039A,decreasing interaction
4,V928G,decreasing interaction

# Source: IntAct's records for PubMed 7561682
